# Measurements as given in article PMC7909569, “Unique Cellular and Biochemical Features of Human Mitochondrial Peroxiredoxin 3 Establish the Molecular Basis for Its Specific Reaction with Thiostrepton” (Antioxidants, 2021).
# Substitutions are numbered along the chain they refer to. In names and notes the source's numbering stands.
# B1: PRX2-T82E (enzyme, human, UniProt P32119 1-198, looked up)
# chain: MASGNARIGKPAPDFKATAVVDGAFKEVKLSDYKGKYVVLFFYPLDFTFVCPTEIIAFSNRAEDFRKLGCEVLGVSVDSQFEHLAWINTPRKEGGLGPLNIPLLADVTRRLSEDYGVLKTDEGIAYRGLFIIDGKGVLRQITVNDLPVGRSVDEALRLVQAFQYTDEHGEVCPAGWKPGSDTIKPNVDDSKEYFSKHN
# notes: peroxiredoxin 2 (PRX2), human, with T82E in the dimer-dimer interface; The methods call the N-terminal His-tag non-cleavable; also called engineered dimer of PRX2; dimeric version of PRX2
# B2: Wild-type human PRX2 (enzyme, UniProt P32119 1-198, looked up)
# chain: B1 chain with E82T
# notes: peroxiredoxin 2 (PRX2), human, wild type, untagged, no extra residues; Tested reduced (DTT) and oxidised to the disulfide (H2O2); also called peroxiredoxin 2; WT PRX2
# B3: Wild-type human PRX1 (enzyme, UniProt Q06830 1-199, looked up)
# chain: MSSGNAKIGHPAPNFKATAVMPDGQFKDISLSDYKGKYVVFFFYPLDFTFVCPTEIIAFSDRAEEFKKLNCQVIGASVDSHFCHLAWVNTPKKQGGLGPMNIPLVSDPKRTIAQDYGVLKADEGISFRGLFIIDDKGILRQITVNDLPVGRSVDETLRLVQAFQFTDKHGEVCPAGWKPGSDTIKPDVQKSKEYFSKQK
# notes: peroxiredoxin 1 (PRX1), human, wild type, untagged, no extra residues; Tested reduced (DTT) and oxidised to the disulfide (H2O2); also called peroxiredoxin 1; WT PRX1
# B4: PRX1 C83E (enzyme, human, UniProt Q06830 1-199, looked up)
# chain: B3 chain with C83E
# notes: peroxiredoxin 1 (PRX1), human, with C83E in the dimer-dimer interface, untagged; also called engineered dimer of PRX1; dimeric version of PRX1
# B5: Untagged wild-type PRX3 (residues 62–256) (enzyme, human, UniProt P30048 62-256, looked up)
# chain: APAVTQHAPYFKGTAVVNGEFKDLSLDDFKGKYLVLFFYPLDFTFVCPTEIVAFSDKANEFHDVNCEVVAVSVDSHFSHLAWINTPRKNGGLGHMNIALLSDLTKQISRDYGVLLEGSGLALRGLFIIDPNGVIKHLSVNDLPVGRSVEETLRLVKAFQYVETHGEVCPANWTPDSPTIKPSPAASKEYFQKVNQ
# notes: peroxiredoxin 3 (PRX3), human, mitochondrial, residues 62–256, wild type, untagged; Stored oxidised to the disulfide (1.5 equivalents H2O2); tested reduced, partially oxidised and oxidised; also called peroxiredoxin 3; mitochondrial peroxiredoxin 3; not shown: Intein, N-terminal, cleaved
# B6: PRX3-S139E/A142E (enzyme, human, UniProt P30048 62-256, looked up)
# chain: B5 chain with S78E, A81E
# notes: peroxiredoxin 3 (PRX3), human, with S139E and A142E in the dimer-dimer interface; The wild-type construct is residues 62–256; The methods call the N-terminal His-tag non-cleavable; also called engineered dimer of PRX3; PRX3 EE
# Columns and labels:
# [1] = target: the molecule itself; experiment: SEC-MALS; engineered dimers, reduced (10 mM DTT) or oxidized (1.2 equivalents H2O2), 2 mg/mL, all pH values tested (7.0, 7.5, 8.0)
# [2] = target: the molecule itself; experiment: SEC-MALS; oxidized samples (1.2 equivalents of H2O2), 2 mg/mL PRX, 50 mM HEPES, 100 mM NaCl, pH 8.0; (do)decamer against dimers
# [3] = target: the molecule itself; experiment: SEC-MALS; peroxide titration: pre-reduced PRX2 (100 µM), pH 7.4, 100 µM H2O2 (1 equivalence, fully oxidized)
# [4] = target: the molecule itself; experiment: SEC-MALS; reduced samples (10 mM DTT), 2 mg/mL (90–93 µM) PRX, 50 mM HEPES, 100 mM NaCl, pH 7.0, 7.5 or 8.0 (PRX3 only pH 7.5 and 8.0); TSK Gel 4000 SW column run without reducing agents; (do)decamer against dimers
# [5] = target: the molecule itself; experiment: SEC-MALS; peroxide titration: pre-reduced PRX3 (93 µM), DTT removed, pH 8.0, 0 H2O2 (fully reduced)
# [6] = target: the molecule itself; experiment: SEC-MALS; oxidized samples (1.2 equivalents of H2O2), 2 mg/mL PRX, 50 mM HEPES, 100 mM NaCl, pH 7.5; (do)decamer against dimers
protein,measurement,setting,value
B1,stoichiometry N,[1],2
B2,stoichiometry N,[2],2
same,stoichiometry N,[3],10
B3,stoichiometry N,[4],10
B4,stoichiometry N,[1],2
B5,stoichiometry N,[5],12
same,stoichiometry N,[6],2
B6,stoichiometry N,[1],2
